Earlier results in article PMC13428679.

Tests used:
[1] = biological target: Skp1 (Dictyostelium discoideum) (UniProt P52285)

Chain of Fbs1 (Cavia porcellus) (Q80UW2 whole entry): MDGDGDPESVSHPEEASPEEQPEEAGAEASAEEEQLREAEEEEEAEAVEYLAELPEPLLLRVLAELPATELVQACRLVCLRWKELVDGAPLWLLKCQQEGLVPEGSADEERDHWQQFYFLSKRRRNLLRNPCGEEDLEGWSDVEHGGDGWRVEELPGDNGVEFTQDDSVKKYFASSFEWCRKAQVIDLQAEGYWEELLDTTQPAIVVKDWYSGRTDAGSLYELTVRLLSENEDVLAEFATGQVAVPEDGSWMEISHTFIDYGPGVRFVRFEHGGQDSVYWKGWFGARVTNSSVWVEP

| Substance | Kd (Fbs1 (Cavia porcellus)) | Kd [1] |
| --- | --- | --- |
| Skp1 (from UniProt P63208) | 25 µM |  |
| Skp1 (from UniProt P52285) |  | 2500 nM |
